Test: label from the status in PepcDB records
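Also: failed if final PepcDB status was selected cloned or expressed and not failed if soluble or beyond.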

Sequence	protein production
MSIRLRKTVMSVLLGALLAGNLLPAQADTQDRLPDIGTTAGGTLSINQELAMGDFYVRQLRAGAPLINDPLLSDYINQLGNRLVKQADSVRTPFHFYLIRNDDINAFAFFGGNVVLHSALFRYADSESELASVLAHEISHVTQRHLARSMESQQRSAPLTWVGALGSILLAMANPQLGMAALSGTLAGAQQGMITFTQSNEQEADRIGIQVLQRAGFDPQAMPNFLQKLADQSRYASRPPEMLLTHPLPESRLSDARNRANQMRPTPVQSSQDFLFAKIRTFGMYGSPDRPLNDDLLVQWEKGNVREQLAAKYGRAIQLYQAKKYDEARNVLQPLLSSAPDNPWFLDMMTDIDLGQNRAAQAIARLQNVTGMQANPVLQLNLANAYVEGKQPAAAGKILYRYTYAHPDDPNGWDLLAQTAAAQGQRAEELAARAESLALNGQLDQSIRLLSNASSLVKLGSLEQARYDARIDQLRQLQQRFRQYQKS	failed
MSLKKVLLCVGNELRGDDGVAIALGRLVEEQMPEWSVFFGYDTPESEFGKLRELAPDVIVVADAMSGFKEGEIEFLDLSDERTYLYSTHNLPTPILISYLRGICSKTIFLGISVLLENVLHFSEGLSQGASDSAFVALGRIKELDGMLKEGHHHHHH	not failed
ATAPTPASSETLSGNPALPPPVPGERHDIDSFGGRLTYWSAAPAEPTSEPPLLLIHSVNAAGSAYEVRPIFEHYARSRPVYAIELPGFGHSSRAKRQYTIRMMTDAVHSVVAEIQKVHADKRIDALALSLGSEFLARAASETPQAFRSLALVAPTGFDKKNQRWTAGSRAIPWLHSFFENPVWSESIFKLLTMKPVIGWFLKKAFGSPSIDQGMLDYDYLTTHQPGAQHAPYYFVSGYLFSQDILRIYQDLPMPVWFSHGVRGDFVDYTLKTTVEGRPNWTVTVFQTGAMPHFEVPGEFMRAYDEFLGRVTKA	failed
TTQKGHRQKSFYRGVRAEKWAAWWLRCKGFHIAEIRFKTKCGEIDLIARRGNLVLIVEVKARSTLAEAMAAVSRVNERRIEAAADIWLARQKDRALLCVRFDLIAILPWRWPQHIPAFFM	failed
MVSGKVLKEPASGFMFMDTLDRGVKGYAGGWLVRGKRYNCIVETGAGAAVPLWLAGLKQAGIPLESIRWILLTHVHLDHAGGAGELLRHLPNARIGIHPLGVRHILDPQRLLSHAKVVWEKDFDLLGPMLPAPAERVVELGDGEIIEIDDVRRIKVLYTPGHTSHHVAFFEESTRGVFSGDALGAFFRGKHPFGEYVSMPGVSPPKGDIPAYVQSVERIAKLSPRRIYATHFGLWEPAMPYILSATSQIITISDLCRDVFYGGGGLQDFLSRAATLLASVRQSTRGQVELEKNYFSMAKAVWNYVVAEKGGESSPG	failed
MKVLIDTNVILDVLLNRASFVQDAIAVLELTCGNIQAYVSASAITDIYYIAYKELRDKIRVKNLIKTLLQIITVAGISDKEIMSAIDSDWADFEDSLQNAVAESHDCSMIITRNISDFNGSNLQIISPKDFIVQFTHLEHHHHHH	failed
MSTPLQGIKVLDFTGVQSGPSCTQMLAWFGADVIKIERPGVGDVTRHQLRDIPDIDALYFTMLNSNKRSIELNTKTAEGKEVMEKLIREADILVENFHPGAIDHMGFTWEHIQEINPRLIFGSIKGFDECSPYVNVKAYENVAQAAGGAASTTGFWDGPPLVSAAALGDSNTGMHLLIGLLAALLHREKTGRGQRVTMSMQDAVLNLCRVKLRDQQRLDKLGYLEEYPQYPNGTFGDAVPRGGNAGGGGQPGWILKCKGWETDPNAYIYFTIQEQNWENTCKAIGKPDWITDPAYSTAHARQPHIFDIFAEIEKYTVTIDKHEAVAYLTQFDIPCAPVLSMKEISLDPSLRQSGSVVEVEQPLRGKYLTVGCPMKFSAFTPDIKAAPLLGEHTAAVLQELGYSDDEIAAMKQNHAI	failed
MEDWWFSWLSRTNLEPSLIHEYGLSFSQNELEHEDISYFDHEFLQSMGISIAKHRLEILKLARRDRKNSPPLTSRSISRVVTAIKKTRKCLSDHVRAWIRREEESASSRALVLVPKKTSNGIGKWRGGFLKRNKRSVMPSNGNGGLEKQERLLLTNGTPCRIDSFSSPMVFDYSFKDEKLYAQDTYFEDIKWDSMFQNLKPT	failed
MPHLTKAVHDYRLAAMHRLMDRLRVDALVFGSPDFFQYATNFQLDVWPWERPVFVVVPRNGETFAVMNELSTNHMRFATEKGTVWLSDVTYYAEHPRVANRLALPSQLPEVVAALLAAKGLGMSRIAVDVQHPILTGAQRYLPEMTLRPAMAEMRSLRWVKHAEELQIMRDLAALTDWVQDRYRENIRPGRLVQELDHAMAALMVEEAARRFAGEDFEIMKCWTLTGAASASPHGDGAACGSRIAKGDTIVNLVLPRLNGLYVENERTWFCGQPSDEQARFYSVAARATDAAVAAAVVGRRVCDMDAAAQAVIESAGCGDYVFHRTGHAVGLMLHEYPEDMAFNTRPLLAGEVYSSEPGLYVYGLGGFRLDDTVVVGEVPEVIVKTPKTLSYATVSL	failed
MSLENKFARTVLGDIPVEKLGITDCHDHFIKNGGPEVEEHIDFLMLNVDASIKEFKEFIDRGGSTIVTMDPPNVGRDVLKTLEIANAVKNLGGNVIMSTGFHKAKFYDKYSSWLAVVPTEEIVKMCVAEIEEGMDEYNYNGPVVKRSKAKAGIIKAGTGYGAIDRLELKALEVAARTSILTGCPILVHTQLGTMALEVAKHLIGFGANPDKIQISHLNKNPDKYYYEKVIKETGVTLCFDGPDRVKYYPDSLLAENIKYLVDKGLQKHITLSLDAGRILYQRNYGLTKGKQTFGLAYLFDRFLPLLKQVGVSKEAIFDILVNNPKRVLAFDEKRNFDPLKVSKEVLELKKELNLNEGHHHHHH	not failed
MTIACPQCGATAEARTDTRFHGCAFCGSSFMVERGVGIAEYHLDHERDDRVAWSAVASTLERDGAGQAVERTGCEYLVAPFWLSRPESGGNRLVPALRHPWLQGPLPGLPGGDLLFVPSGDDFILPDIPADEALGEGADRGGTSLSLVYLPLYLLSFRLAGHDCRALVSAVDRRVALLTPLPARSESVPFRHAALVAGFAITLTASGLAVKSHFLRAAVFAAVLAVAWPVCTALLRRGE	failed
MKYEYPAELPVSAARDEIASAVKRSQVVIVSGQTGSGKTTQLPKILLELGRGTHGKQIVHTQPRRIAARTVAERIASEMGVKLGDEVGYQVRFTDESSPGTRLRVVTDGILLAQIQRDPKLTRYDTIIIDEAHERSLNIDFLLGYLTALLPQRRDLKLIITSATIDSVKFQEHFEHALHEKVPVIEVSGRTFPVQVVYEPLGTAPALMREVPGFAVGARPGDADYDELASAIAESDSDRPRGRSGASYADDGITDMPTAVARACAELVIHSSHERGPRDILVFASGERDIHEFEAALRHHYGPRADDMRRPDAIEIMPLFARLSAADQHKVFESHLHQRIVIATNVAETSLTVPGIRYVVDPGSARISRYSKTAKVQRLPIEPISQASADQRSGRCGRVADGIAIRLYSREDYETRPRFTEPEILRTSLGAVVLHMLSVGVARTAEDVTNFGFIDPPDMKAVSDGFNELTELKAIGRKRGEVTLTHTGRQLARIPIDVRLGRMVIEAAKTGSPNLLAQVLVVVAFLSLQDPRERPDDKREDADRIHNRYADETSDFLTALNIWDRVFQADGDPSNNALRRICKTEYFSWLRMRQWKDLVSQLRQMCKELKFKVGDPLPASRPGLEIRQLPLNQQAAHSLCCAWDADGIHKSMLAGLLSMMGMQVVREPKASDFAGLTGSARARAMKRAQKQSKNDYQGARGTRFALFPASAVAKKTPSWVMSTELVETSRLWARYSAAIDPAWAEPLAGQLTRTTYAEPHWSGSRGSAVATARVLLYGLPIVQDRAVQWGRINPLEARDFLIRQGLVEGDIQQRFSYDDFVGKNRDILEDAADDASRTRQLADTVSDEDLFDFYNAVIPNDVTSVADLAKWWKSEHDRQPNLLDFDPAKVERLASSDSVSLDDYPDHWHTTGSDGQPIDLRLSYVYDPADPADGVTVHVPLKALSRITPDQFTWNVPGLLDELILSMIKALPKQLRVQFVPAPDAARAIRDWIDEHYPDLPGSGSQQKPNLPPVDEDGTTVGWPDLAHVFTKAAIATKGAQIHPEVLGPELVERLSPYLRVTFSVEQQLPAGKHPRGRRHARGPIKVLGVSKDLKALQRKFAAQAEASARQMVKKQADQAGEQGKLVSQANLLHKAGATTESRATMLWRGALDALRLPAERISSRWLGTEALMLASAPYKSTKDLVEDLQLATVKRLMPNVDRLSDDEALANAVLDVREVYEDTVYQVAHDVIAVLKAYAEVDKATGGKADLPMLSVLQSIRDHIATLVYPGFIGRTPPDALKSLSRYLRADLSRLNKAKTDKNRDVKWAWQADEARQVVDKALARAKAEPAGPKHEALMKQAEQARWMLEEFYVSLWAQELGTKGPASLNRIKKALA	failed
MLQEDLRKKAGQLFAVGFHGVVPSPEIKTLIHEYGIGGIVLFKRNIQNAMQLQLPGPMALGATHSPELAYQVGQVTGETLRFFGINMNYAPVCDINSEPLNPVIGPRSPGDDPEFVGRFASAAAQGLREQKIIPSVKHFPGHGDTAVDSHYGLPVIEKTREQLERCELIPFRRAVAEGVEAVMTAHISLPAIGDGKLPATLSADVLSILRNEMQFEGMIITDCLEMDGIRATYGTEQGAVLSLEAGSDSIMICHTYAVQVASIQKVCEAVQSGQLSASRLEEAYRRVVKLKSKFLSWDTALLTRSLDDLVTLNRKAA	failed
MSLKHYSIQPANLEFNAEGTPVSRDFDDVYFSNDNGLEETRYVFLGGNQLEARFPEHPHPLFVVAESGFGTGLNFLTLWQAFDQFREAHPQAQLQRLHFISFEKFPLTRADLALAHQHWPELAPWAEQLQAQWPMPLPGCHRLLLDEGRVTLDLWFGDINELISQLDDSLNQKVDAWFLDGFAPAKNPDMWTQNLFNAMARLARPGGTLATFTSAGFVRRGLQEAGFTMQKRKGFGRKREMLCGVMEQTEGHHHHHH	not failed
MKLVTISGPPSSGKTAVLAGVIRAMMASGLKVGALKYDCLATNDDDVFRAIGVPVQTGLSGNLCPDHYFVSNIEECLDWGIREGFDFLLSESAGLCNRCAPHIKGVLAVCVIDNLMGATTPKKIGPMLKYADIVVITKGDIVSQAEREVFAFQVRRANPRAKIMHVNGITGQGAGELASQFLLAPETTCLDGSRLRFSMPAALCSYCLGETRIGMEFQLGNVKKIKMSEEPARLEHHHHHH	not failed
MDYSQFLYMKEELSLIAVILILFVVDLLTCPDQKGATPKVNVRSLTLPAVILMTLHTVINLFPGTPAEAFGGMYQYTPMQTIIKAVLNVGTIIVLLMAHEWLKREDTRIKQGEFYVLTLSTLLGMYFMISAGHFLMFFIGLEMASIPMAALVAFDKYRHHSAEAGAKYILTALFSSALLLFGLSMIYGTSGTLYFNDLPGHITGNMLQIMAFVFFFAGMGFKISLVPFHLWTADVYEGAPTAVTSYLSVISKGSAAFVLMTILMKVFAPMVAQWQEVLFWVTIASITIANLFAIRQQNLKRFMAFSAISQAGYIMLGVIGGSEMGMTALVYYVLVYLAANLGVFAVISIVEQRSNKVEIDDYNGLYKTNPKLAFIMTLALFSLAGIPPFAGFFSKFFIFMAAFNSGFHLLVFIALINTVVSLYYYLLIVKAMYINPNEEPIPTFRSDNYTKVSLVLCTLGIIALGIASCIYQGIDKFSFGMGM	failed
AGNETVTEGFKEGQVGSSAMPHKMNARSCERVGGLQVILRGYLTMVADLSGQQWNEGDVFCSVIRRVALPDAFFALDGMYETFLTVLAEFGAFPAMIDRELERYLPFLATTRILMAAVRVGVGRETAHEVIKENAVAVALNMRENGGEQDLIDRLAADERLPMTREQLDEALADRHAFIGAAESQVARVVDRVNDLVRRYPAAAQYTPGDIL	failed

From a protein production outcome set (Wang et al. 2014)
